# Source: patent publication US20260176621A1, “Metabolically Stabilized Carbohydrate Targeting Ligands For Oligonucleotide Conjugates” (Arrowhead Pharmaceuticals, Inc., priority 2023, published 2026)
# B1: AC005898: APOC3-PCSK9 dimer RNAi agent conjugate with (NAG52)s ligand, SEQ ID NO 17-19 (nucleic acid)
# chain 1: ACAAAAGCAAAACAGGUCC
# chain 2: UCACUGAGAAUACUGUCCC
# chain 3: GGACCUGUUUUGCUUUUGUGGGACAGUAUUCUCAGUNA
# modifications: (NAG52)s ligand conjugate; modified_base 1 OTHER; 5'-cyclopropyl phosphonate-2'-O-methyladenosine; modified_base 1^2 OTHER; phosphorothioate linkage; modified_base 2 OTHER; 2'-fluorocytidine; modified_base 2^3 OTHER; modified_base 3 OTHER; 2'-O-methyladenosine; modified_base 3^4 OTHER; modified_base 4 OTHER; 2'-fluoroadenosine; modified_base 5 OTHER; 5'-cyclopropyl phosphonate-2'-O-methyluridine; phosphor
# B2: AC003791: APOC3-PCSK9 dimer RNAi agent conjugate with (NAG52)s ligand, SEQ ID NO 14-16 (nucleic acid)
# chain 1: AAGUUACAAAAGCAAAACG
# chain 2: UCACUGAGAAUACUGUCCC
# chain 3: CGUUUUGCUUUUGUAACUUGGGACAGUAUUCUCAGUNA
# modifications: (NAG52)s ligand conjugate; modified_base 1 OTHER; 5'-cyclopropyl phosphonate-2'-O-methyladenosine; modified_base 1^2 OTHER; phosphorothioate linkage; modified_base 2 OTHER; 2'-fluoroadenosine; modified_base 2^3 OTHER; modified_base 3 gm; modified_base 4 um; modified_base 5 um; modified_base 6 OTHER; 2'-O-methyladenosine; modified_base 7 cm; modified_base 8 OTHER; modified_base; 5'-cyclopropyl phosphonate-2'-O-methyluridine; 2'-fluorocytidine; phosphor
# Experiments:
# Format in all cases: in vivo, Cynomolgus monkey
# PCSK9 [1] = experiment: Liver PCSK9 mRNA expression by qPCR of liver biopsies (Example 5); conditions: for Rel. Exp. PCSK9 (liver mRNA, qPCR, normalized to Day −6): 6.0 mg/kg SQ on Day 1
# Procedure: (§1) On Day 1, three (n=3) male Cynomolgus monkey test animals for each test group were dosed with APOC3-PCSK9 RNAi agents formulated in saline (at 6.0 mg/kg), via subcutaneous (SQ) injection with syringe and needle in the mid-scapular region, at […] dose volume.
# (§2) The liver biopsies and serum collected from the test animals were used for analysis for APOC3 and PCSK9 expression and additional biological parameters. Liver biopsies were collected on Day −6, Day 15, Day 36, Day 50, and Day 64 (post-mortem).
# (§3) Liver biopsies were collected as a sedated procedure. Animals were fasted overnight (at least 12 hours but less than 18 hours) prior to each liver biopsy collection. For each animal, collected liver biopsy samples were of approximately 100 mg each (80 to 120 mg).
# (§4) The collected liver biopsies were analyzed for APOC3 and PCSK9 expression and additional biological parameters. Liver APOC3 and PCSK9 mRNA expression levels were quantified via qPCR, using cARL1 as endogenous control gene, normalized to Day-6 (pre-dose).
# APOC3 [2] = experiment: Serum APOC3 by Roche Cobas assay (Example 5); conditions: for APOC3 (serum): 6.0 mg/kg SQ on Day 1; for inhibition of serum APOC3 relative to Day −6: single 6.0 mg/kg SQ on Day 1
# Procedure: as §1
# (§5) Serum blood (approximately 5.0 mL) was collected on Day −6, Day 8, Day 15, Day 22, Day 29, Day 36, Day 43, Day 50, […], prior to liver biopsy sample collections or dose administration (when applicable), and from any animals found in moribund condition or sacrificed at an unscheduled interval. The collection site was the femoral vein, with a saphenous vein as an alternative collection site.
# Serum APOC3 was quantified via Roche Cobas® assay for APOC3 in accordance with manufacturer's instructions.
# PCSK9 [3] = experiment: Serum PCSK9 by ELISA (Example 5); conditions: for Rel. Exp. PCSK9 (serum, ELISA, normalized to pre-dose): 6.0 mg/kg SQ on Day 1; for inhibition of serum PCSK9: single 6.0 mg/kg SQ on Day 1
# Procedure: as §1, §5
# Serum PCSK9 was quantified via ELISA (R&D Systems, Cat. #DPC900) in accordance with manufacturer's instructions. The relative PCSK9 levels were normalized to pre-dose Day −6.
# APOC3 [4] = experiment: Liver APOC3 mRNA expression by qPCR of liver biopsies (Example 5); conditions: for Rel. Exp. APOC3 (liver mRNA, qPCR, normalized to Day −6): 6.0 mg/kg SQ on Day 1; for inhibition of liver APOC3 transcripts: single 6.0 mg/kg SQ on Day 1
# Procedure: as §1, §2, §3, §4
molecule,measurement,setting,value
B1,"Rel. Exp. PCSK9 (liver mRNA, qPCR, normalized to Day −6)",PCSK9 [1]; Day 15,0.614
same,"Rel. Exp. PCSK9 (liver mRNA, qPCR, normalized to Day −6)",PCSK9 [1]; Day 36,0.520
same,"Rel. Exp. PCSK9 (liver mRNA, qPCR, normalized to Day −6)",PCSK9 [1]; Day 50,0.528
same,"Rel. Exp. PCSK9 (liver mRNA, qPCR, normalized to Day −6)",PCSK9 [1]; Day 64,0.457
same,"Rel. Exp. PCSK9 (liver mRNA, qPCR, normalized to Day −6)",PCSK9 [1]; Day −6 (pre-dose baseline),1.000
same,APOC3 (serum),APOC3 [2]; Day 1,6.10 mg/dL
same,APOC3 (serum),APOC3 [2]; Day 8,4.61 mg/dL
same,APOC3 (serum),APOC3 [2]; Day 15,3.59 mg/dL
same,inhibition of serum APOC3 relative to Day −6,APOC3 [2]; Day 22 (nadir),approximately 40%
same,APOC3 (serum),APOC3 [2]; Day 22,3.50 mg/dL
same,APOC3 (serum),APOC3 [2]; Day 29,4.16 mg/dL
same,APOC3 (serum),APOC3 [2]; Day 36,3.59 mg/dL
same,APOC3 (serum),APOC3 [2]; Day 43,4.07 mg/dL
same,APOC3 (serum),APOC3 [2]; Day 50,3.96 mg/dL
same,APOC3 (serum),APOC3 [2]; Day 57,4.94 mg/dL
same,APOC3 (serum),APOC3 [2]; Day 64,4.47 mg/dL
same,inhibition of serum APOC3 relative to Day −6,APOC3 [2]; Day 64,approximately 23%
same,APOC3 (serum),APOC3 [2]; Day −6 (pre-dose baseline),5.84 mg/dL
same,"Rel. Exp. PCSK9 (serum, ELISA, normalized to pre-dose)",PCSK9 [3]; Day 1,1.004
same,"Rel. Exp. PCSK9 (serum, ELISA, normalized to pre-dose)",PCSK9 [3]; Day 8,0.724
same,"Rel. Exp. PCSK9 (serum, ELISA, normalized to pre-dose)",PCSK9 [3]; Day 15,0.561
same,"Rel. Exp. PCSK9 (serum, ELISA, normalized to pre-dose)",PCSK9 [3]; Day 22,0.560
same,"Rel. Exp. PCSK9 (serum, ELISA, normalized to pre-dose)",PCSK9 [3]; Day 29,0.617
same,"Rel. Exp. PCSK9 (serum, ELISA, normalized to pre-dose)",PCSK9 [3]; Day 36,0.426
same,"Rel. Exp. PCSK9 (serum, ELISA, normalized to pre-dose)",PCSK9 [3]; Day 43,0.790
same,"Rel. Exp. PCSK9 (serum, ELISA, normalized to pre-dose)",PCSK9 [3]; Day 50,0.728
same,"Rel. Exp. PCSK9 (serum, ELISA, normalized to pre-dose)",PCSK9 [3]; Day 57,0.762
same,"Rel. Exp. PCSK9 (serum, ELISA, normalized to pre-dose)",PCSK9 [3]; Day 64,0.928
same,"Rel. Exp. PCSK9 (serum, ELISA, normalized to pre-dose)",PCSK9 [3]; Day −6 (pre-dose),1.140
same,"Rel. Exp. APOC3 (liver mRNA, qPCR, normalized to Day −6)",APOC3 [4]; Day 15,0.545
same,"Rel. Exp. APOC3 (liver mRNA, qPCR, normalized to Day −6)",APOC3 [4]; Day 36,0.929
same,"Rel. Exp. APOC3 (liver mRNA, qPCR, normalized to Day −6)",APOC3 [4]; Day 50,0.491
same,"Rel. Exp. APOC3 (liver mRNA, qPCR, normalized to Day −6)",APOC3 [4]; Day 64,0.535
same,"Rel. Exp. APOC3 (liver mRNA, qPCR, normalized to Day −6)",APOC3 [4]; Day −6 (pre-dose baseline),1.000
B2,"Rel. Exp. PCSK9 (liver mRNA, qPCR, normalized to Day −6)",PCSK9 [1]; Day 15,0.692
same,"Rel. Exp. PCSK9 (liver mRNA, qPCR, normalized to Day −6)",PCSK9 [1]; Day 36,0.908
same,"Rel. Exp. PCSK9 (liver mRNA, qPCR, normalized to Day −6)",PCSK9 [1]; Day 50,1.271
same,"Rel. Exp. PCSK9 (liver mRNA, qPCR, normalized to Day −6)",PCSK9 [1]; Day 64,0.351
same,inhibition of liver PCSK9 transcripts,"PCSK9 [1]; Day 64, single 6.0 mg/kg SQ on Day 1",approximately 64%
same,"Rel. Exp. PCSK9 (liver mRNA, qPCR, normalized to Day −6)",PCSK9 [1]; Day −6 (pre-dose baseline),1.000
same,APOC3 (serum),APOC3 [2]; Day 1,6.48 mg/dL
same,APOC3 (serum),APOC3 [2]; Day 8,4.57 mg/dL
same,APOC3 (serum),APOC3 [2]; Day 15,4.03 mg/dL
same,APOC3 (serum),APOC3 [2]; Day 22,2.92 mg/dL
same,APOC3 (serum),APOC3 [2]; Day 29,3.69 mg/dL
same,inhibition of serum APOC3 relative to Day −6,APOC3 [2]; Day 36 (nadir),approximately 51%
same,APOC3 (serum),APOC3 [2]; Day 36,2.96 mg/dL
same,APOC3 (serum),APOC3 [2]; Day 43,3.18 mg/dL
same,APOC3 (serum),APOC3 [2]; Day 50,3.32 mg/dL
same,APOC3 (serum),APOC3 [2]; Day 57,4.56 mg/dL
same,APOC3 (serum),APOC3 [2]; Day 64,4.65 mg/dL
same,inhibition of serum APOC3 relative to Day −6,APOC3 [2]; Day 64,approximately 24%
same,APOC3 (serum),APOC3 [2]; Day −6 (pre-dose baseline),6.15 mg/dL
same,"Rel. Exp. PCSK9 (serum, ELISA, normalized to pre-dose)",PCSK9 [3]; Day 1,1.161
same,"Rel. Exp. PCSK9 (serum, ELISA, normalized to pre-dose)",PCSK9 [3]; Day 8,0.682
same,"Rel. Exp. PCSK9 (serum, ELISA, normalized to pre-dose)",PCSK9 [3]; Day 15,0.415
same,"Rel. Exp. PCSK9 (serum, ELISA, normalized to pre-dose)",PCSK9 [3]; Day 22,0.339
same,"Rel. Exp. PCSK9 (serum, ELISA, normalized to pre-dose)",PCSK9 [3]; Day 29,0.353
same,inhibition of serum PCSK9,PCSK9 [3]; Day 36 (nadir),approximately 67%
same,"Rel. Exp. PCSK9 (serum, ELISA, normalized to pre-dose)",PCSK9 [3]; Day 36,0.323
same,"Rel. Exp. PCSK9 (serum, ELISA, normalized to pre-dose)",PCSK9 [3]; Day 43,0.375
same,"Rel. Exp. PCSK9 (serum, ELISA, normalized to pre-dose)",PCSK9 [3]; Day 50,0.759
same,"Rel. Exp. PCSK9 (serum, ELISA, normalized to pre-dose)",PCSK9 [3]; Day 57,0.431
same,"Rel. Exp. PCSK9 (serum, ELISA, normalized to pre-dose)",PCSK9 [3]; Day 64,0.538
same,inhibition of serum PCSK9,PCSK9 [3]; Day 64,approximately 46%
same,"Rel. Exp. PCSK9 (serum, ELISA, normalized to pre-dose)",PCSK9 [3]; Day −6 (pre-dose),0.925
same,"Rel. Exp. APOC3 (liver mRNA, qPCR, normalized to Day −6)",APOC3 [4]; Day 15,0.408
same,"Rel. Exp. APOC3 (liver mRNA, qPCR, normalized to Day −6)",APOC3 [4]; Day 36,0.611
same,"Rel. Exp. APOC3 (liver mRNA, qPCR, normalized to Day −6)",APOC3 [4]; Day 50,0.336
same,inhibition of liver APOC3 transcripts,APOC3 [4]; Day 50,approximately 66%
same,"Rel. Exp. APOC3 (liver mRNA, qPCR, normalized to Day −6)",APOC3 [4]; Day 64,0.500
same,inhibition of liver APOC3 transcripts,APOC3 [4]; Day 64,approximately 50%
same,"Rel. Exp. APOC3 (liver mRNA, qPCR, normalized to Day −6)",APOC3 [4]; Day −6 (pre-dose baseline),1.000
